Target: T1, TATA-binding protein (TBP) (UniProt P13393 P13393:1-240)
T1 sequence: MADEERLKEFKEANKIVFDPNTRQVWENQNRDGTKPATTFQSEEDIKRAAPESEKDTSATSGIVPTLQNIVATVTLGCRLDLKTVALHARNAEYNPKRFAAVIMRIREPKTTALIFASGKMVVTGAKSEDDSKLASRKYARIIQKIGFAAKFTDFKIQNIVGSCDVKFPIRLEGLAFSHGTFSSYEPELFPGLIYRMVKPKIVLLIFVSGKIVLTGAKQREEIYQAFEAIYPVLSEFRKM
Assay: fluorescence microscopy of TBP in sol-gel; binding buffer 25 mM Tris pH 8, 100 mM NaCl, 25 mM KCl, 10 mM MgCl2
Conditions: tags: His-tag, full length, expressed in E. coli BL21-DE3; label: 5'-Cy3 on top strand
Description: Sol-gels with TBP were enclosed with the PDMS lid. After encapsulation, the channels were washed extensively with the PBS buffer (binding buffer) by connecting one end of the main channel to a syringe pump (Pump 11, Harvard Apparatus, Holliston, Mass.). Following the pre-washing step, the silicate gel spot was blocked for 1 hour with 1× binding buffer that contained 25 mM Tris-Cl (pH 8), 100 mM NaCl, 25 mM KCl and 10 mM MgCl₂ with 5% skim milk. The blocking buffer works as a nonspecific competitor in the reaction mixture, which helps to achieve the selection of high-affinity molecules. […] After binding, the interaction of immobilized TBP proteins and Cy-3 labeled TATA DNA was monitored by fluorescence microscopy.
The Cy-3-labeled TATA DNA has a high affinity for TBP similar to that of the conventionally selected aptamers. […] The measured melting point of TATA DNA was 72° C. […] The fluorescence intensity of the sol-gel except for the negative sol-gel was detected under the fluorescent microscope (FIG. 6).

B1: TATA DNA (dsDNA)
DNA 1: GGGAATTCGGGCTATAAAAGGGGGATCCGG
DNA 2: CCGGATCCCCCTTTTATAGCCCGAATTCCC
B1: binds.

From US20120028811, “DEVICE FOR RAPID IDENTIFICATION OF NUCLEIC ACIDS FOR BINDING TO SPECIFIC CHEMICAL TARGETS” (DONGGUK UNIVERSITY, published 2012)
